One block for each binder: values may come before it. Bridge positions count the residues as written; N and C are the ends. Square brackets hold non-standard residues; d marks the D form. Ends that are not written are not given here. Hyp = O=C(O)[C@@H]1C[C@@H](O)CN1; Cit = NC(=O)NCCC[C@H](N)C(=O)O
What was measured:
hAMY3R = target: T1, hAMY3R (human, UniProt P30988); assay: cell-based or functional assay
T1 sequence 1: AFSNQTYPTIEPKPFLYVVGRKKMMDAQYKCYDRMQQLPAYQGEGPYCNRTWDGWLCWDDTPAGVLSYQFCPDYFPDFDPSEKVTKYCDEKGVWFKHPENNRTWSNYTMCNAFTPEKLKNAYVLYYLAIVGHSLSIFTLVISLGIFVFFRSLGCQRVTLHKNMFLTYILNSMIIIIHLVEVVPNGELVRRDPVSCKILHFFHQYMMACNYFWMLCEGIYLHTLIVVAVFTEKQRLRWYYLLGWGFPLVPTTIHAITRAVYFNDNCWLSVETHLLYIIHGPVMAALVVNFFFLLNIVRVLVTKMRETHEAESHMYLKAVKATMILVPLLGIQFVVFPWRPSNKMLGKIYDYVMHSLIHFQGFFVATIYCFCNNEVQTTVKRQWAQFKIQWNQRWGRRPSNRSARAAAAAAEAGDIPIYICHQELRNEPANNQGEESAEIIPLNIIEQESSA
T1 sequence 2: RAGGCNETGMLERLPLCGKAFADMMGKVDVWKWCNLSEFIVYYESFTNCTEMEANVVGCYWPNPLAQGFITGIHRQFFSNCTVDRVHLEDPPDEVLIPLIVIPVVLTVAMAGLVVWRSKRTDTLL

hAM1R = hAM1R (human, UniProt Q16602); assay: cell-based or functional assay

hAMY3R EC50 (cAMP) (hAMY3R): 0.019 nM
hAM1R EC50 (cAMP) (hAM1R): 877 nM
Binder: GCRFGTCTVQ[Cit]LAHQIYQFTDKDKDNVAPRTKIGPQG[Hyp]-NH2 (disulfide 2-7 (inferred); ends not checked) [SEQ ID NO: 274]

hAMY3R EC50 (cAMP) (hAMY3R): 0.006 nM
hAM1R EC50 (cAMP) (hAM1R): 3470 nM
Binder: GCRFGTCTVQ[Cit]LAHFLYQFTDKDKDNVAPRTNVGSNTY-NH2 (disulfide 2-7 (inferred); ends not checked) [SEQ ID NO: 264]

hAMY3R EC50 (cAMP) (hAMY3R): 0.011 nM
hAM1R EC50 (cAMP) (hAM1R): 4160 nM
Binder: GCRFGTCTVQ[Cit]LAHQIYQFTDKDKDNVAPRTNIGPQG[Hyp]-NH2 (disulfide 2-7 (inferred); ends not checked) [SEQ ID NO: 260]

hAMY3R EC50 (cAMP) (hAMY3R): 0.056 nM
hAM1R EC50 (cAMP) (hAM1R): > 5000 nM
Binder: KCNTATCTVQ[Cit]LAHQIYQATDKDKDNVAPPTNVGSNG[Hyp]-NH2 (disulfide 2-7 (inferred); ends not checked) [SEQ ID NO: 276]

hAMY3R EC50 (cAMP) (hAMY3R): 0.014 nM
hAM1R EC50 (cAMP) (hAM1R): > 5000 nM
Binder: KCNTATCTVQ[Cit]LAHQIYQFTDKDKDNVAPPTNVGSNG[Hyp]-NH2 (disulfide 2-7 (inferred); ends not checked) [SEQ ID NO: 268]

hAMY3R EC50 (cAMP) (hAMY3R): 0.03 nM
hAM1R EC50 (cAMP) (hAM1R): > 5000 nM
Binder: KCNTATCTVQ[Cit]LAHQIYQFDKDKDNVAPPTNVGSNG[Hyp]-NH2 (disulfide 2-7 (inferred); ends not checked) [SEQ ID NO: 265]

hAMY3R EC50 (cAMP) (hAMY3R): 0.02 nM
hAM1R EC50 (cAMP) (hAM1R): > 5000 nM
Binder: GCRFGTCTVQ[Cit]LAHQIYQFTDKDKDNVAPRTKISPNG[Hyp]-NH2 (disulfide 2-7 (inferred); ends not checked) [SEQ ID NO: 275]

hAMY3R EC50 (cAMP) (hAMY3R): 0.014 nM
hAM1R EC50 (cAMP) (hAM1R): > 5000 nM
Binder: KCNTATCTVQ[Cit]LAHQIYQFTDKDKDNVAAPTNVGSNG[Hyp]-NH2 (disulfide 2-7 (inferred); ends not checked) [SEQ ID NO: 262]

hAMY3R EC50 (cAMP) (hAMY3R): 0.013 nM
hAM1R EC50 (cAMP) (hAM1R): 4320 nM
Binder: GCRFGTCTVQ[Cit]LAHQIYQFTDKDKDNVAPRTKVGPQG[Hyp]-NH2 (disulfide 2-7 (inferred); ends not checked) [SEQ ID NO: 259]

hAMY3R EC50 (cAMP) (hAMY3R): 0.01 nM
hAM1R EC50 (cAMP) (hAM1R): 96.6 nM
Binder: GCRFGTCTVQ[Cit]LAHQIYQFTDKDKDNVAPRTNVSPNGY-NH2 (disulfide 2-7 (inferred); ends not checked) [SEQ ID NO: 271]

hAMY3R EC50 (cAMP) (hAMY3R): 0.009 nM
hAM1R EC50 (cAMP) (hAM1R): > 5000 nM
Binder: KCNTATCTVQ[Cit]LAHQIYQFTDKDKDNVAPRTEVGSNGY-NH2 (disulfide 2-7 (inferred); ends not checked) [SEQ ID NO: 272]

hAMY3R EC50 (cAMP) (hAMY3R): 0.053 nM
hAM1R EC50 (cAMP) (hAM1R): > 5000 nM
Binder: KCNTATCTVQ[Cit]LAEQIYQFTDKDKDNVSPPTNVGSNG[Hyp]-NH2 (disulfide 2-7 (inferred); ends not checked) [SEQ ID NO: 266]

hAMY3R EC50 (cAMP) (hAMY3R): 0.005 nM
hAM1R EC50 (cAMP) (hAM1R): 1280 nM
Binder: GCRFGTCTVQ[Cit]LAHFLYQFTDKDKDNVAPRTNVGPQGY-NH2 (disulfide 2-7 (inferred); ends not checked) [SEQ ID NO: 263]

hAMY3R EC50 (cAMP) (hAMY3R): 0.007 nM
hAM1R EC50 (cAMP) (hAM1R): 2490 nM
Binder: GCRFGTCTVQ[Cit]LAHQIYQFTDKDKDNVAPRTNVGPQG[Hyp]-NH2 (disulfide 2-7 (inferred); ends not checked) [SEQ ID NO: 267]

hAMY3R EC50 (cAMP) (hAMY3R): 0.018 nM
hAM1R EC50 (cAMP) (hAM1R): > 5000 nM
Binder: GCRTGTCTVQ[Cit]LAHQIYQFTDKDKDNVAPRTNVGPQG[Hyp]-NH2 (disulfide 2-7 (inferred); ends not checked) [SEQ ID NO: 261]

hAMY3R EC50 (cAMP) (hAMY3R): 0.005 nM
hAM1R EC50 (cAMP) (hAM1R): > 5000 nM
Binder: GCRTGTCTVQ[Cit]LAHQIYQFTDKDKDNVAPRTNVGPNGY-NH2 (disulfide 2-7 (inferred); ends not checked) [SEQ ID NO: 269]

hAMY3R EC50 (cAMP) (hAMY3R): 0.021 nM
hAM1R EC50 (cAMP) (hAM1R): > 5000 nM
Binder: GCRTGTCTVQ[Cit]LAHQIYQFTDKDKDNVAPRTNVGPQGY-NH2 (disulfide 2-7 (inferred); ends not checked) [SEQ ID NO: 273]

hAMY3R EC50 (cAMP) (hAMY3R): 0.003 nM
hAM1R EC50 (cAMP) (hAM1R): 1880 nM
Binder: GCRFGTCTVQ[Cit]LAHQIYQFTDKDKDNVAPRTNVGPNG[Hyp]-NH2 (disulfide 2-7 (inferred); ends not checked) [SEQ ID NO: 270]

The next lines start with the binder.

Binder: KCNTATCTVQRLAHQIYQFTDKDKDNVAPATNVGSNG[Hyp]-NH2 (disulfide 2-7 (inferred); ends not checked) [SEQ ID NO: 28]
hAMY3R EC50 (cAMP) (hAMY3R): 0.008 nM
hAM1R EC50 (cAMP) (hAM1R): > 5000 nM

Binder: KCNTATCTVQ[Cit]LAHQIYQFTDKDKDNVPPTNVGSNG[Hyp]-NH2 (disulfide 2-7 (inferred); ends not checked) [SEQ ID NO: 254]
hAMY3R EC50 (cAMP) (hAMY3R): 0.006 nM
hAM1R EC50 (cAMP) (hAM1R): > 5000 nM

Binder: KCNTATCTVQ[Cit]LAHQIYQFTDKDKDNVAPRTKVGSNGY-NH2 (disulfide 2-7 (inferred); ends not checked) [SEQ ID NO: 257]
hAMY3R EC50 (cAMP) (hAMY3R): 0.016 nM
hAM1R EC50 (cAMP) (hAM1R): 2040 nM

Binder: KCNTATCTVQ[Cit]LAHQIYQFTDKDADNVAPPTNVGSNG[Hyp]-NH2 (disulfide 2-7 (inferred); ends not checked) [SEQ ID NO: 250]
hAMY3R EC50 (cAMP) (hAMY3R): 0.011 nM
hAM1R EC50 (cAMP) (hAM1R): > 5000 nM

Binder: KCNTATCTVQ[Cit]LAHQIYQFTDKDKDNAAPPTNVGSNG[Hyp]-NH2 (disulfide 2-7 (inferred); ends not checked) [SEQ ID NO: 251]
hAMY3R EC50 (cAMP) (hAMY3R): 0.006 nM
hAM1R EC50 (cAMP) (hAM1R): > 5000 nM

Binder: KCNTATCTVQRLAHQIYQFTDKDKANVAPPTNVGSNG[Hyp]-NH2 (disulfide 2-7 (inferred); ends not checked) [SEQ ID NO: 26]
hAMY3R EC50 (cAMP) (hAMY3R): 0.008 nM
hAM1R EC50 (cAMP) (hAM1R): > 5000 nM

Binder: KCNTATCTVQ[Cit]LAHQIYQFADKDKDNVAPPTNVGSNG[Hyp]-NH2 (disulfide 2-7 (inferred); ends not checked) [SEQ ID NO: 249]
hAMY3R EC50 (cAMP) (hAMY3R): 0.006 nM
hAM1R EC50 (cAMP) (hAM1R): > 5000 nM

Binder: KCNTATCTVQRLAHQIYQFTDKDKDNAAPPTNVGSNG[Hyp]-NH2 (disulfide 2-7 (inferred); ends not checked) [SEQ ID NO: 27]
hAMY3R EC50 (cAMP) (hAMY3R): 0.008 nM
hAM1R EC50 (cAMP) (hAM1R): > 5000 nM

Binder: RCQTSTCTVA[Cit]LAEQIAQYTDKDKDQVAPPTNVGSNS[Hyp]-NH2 (disulfide 2-7 (inferred); ends not checked) [SEQ ID NO: 256]
hAMY3R EC50 (cAMP) (hAMY3R): 0.007 nM
hAM1R EC50 (cAMP) (hAM1R): > 5000 nM

Binder: KCNTATCTVQ[Cit]LAHQIYQFTDKDKDNVAPTNVGSNG[Hyp]-NH2 (disulfide 2-7 (inferred); ends not checked) [SEQ ID NO: 255]
hAMY3R EC50 (cAMP) (hAMY3R): 0.007 nM
hAM1R EC50 (cAMP) (hAM1R): > 5000 nM

Binder: KCNTATCTVQ[Cit]LAHQIYQFTDKDKDNVAPATNVGSNG[Hyp]-NH2 (disulfide 2-7 (inferred); ends not checked) [SEQ ID NO: 252]
hAMY3R EC50 (cAMP) (hAMY3R): 0.006 nM
hAM1R EC50 (cAMP) (hAM1R): > 5000 nM

Binder: KCNTATCTVQ[Cit]LAHQIYQFTKDKDNVAPPTNVGSNG[Hyp]-NH2 (disulfide 2-7 (inferred); ends not checked) [SEQ ID NO: 253]
hAMY3R EC50 (cAMP) (hAMY3R): 0.004 nM
hAM1R EC50 (cAMP) (hAM1R): > 5000 nM

Binder: KCNFATCTVQRLAHQIYQFTDKDKDNVAPRTKVGSNG[Hyp]-NH2 (disulfide 2-7 (inferred); ends not checked) [SEQ ID NO: 3]
hAMY3R EC50 (cAMP) (hAMY3R): 0.006 nM
hAM1R EC50 (cAMP) (hAM1R): 124 nM

Binder: KCNTATCTVQ[Cit]LAHQIYQFTDKAKDNVAPPTNVGSNG[Hyp]-NH2 (disulfide 2-7 (inferred); ends not checked) [SEQ ID NO: 258]
hAMY3R EC50 (cAMP) (hAMY3R): 0.01 nM
hAM1R EC50 (cAMP) (hAM1R): > 5000 nM
